The values below come from PMC5050915, “CYP79D enzymes contribute to jasmonic acid-induced formation of aldoximes and other nitrogenous volatiles in two Erythroxylum species” (BMC Plant Biology, 2016).

In one series the target is T1, CYP79D61 (Erythroxylum fischeri, UniProt A0A1D8QQQ4).
T1 construct: complete ORF in pESC-Leu2d, Saccharomyces cerevisiae WAT11 microsomes
T1 sequence (A0A1D8QQQ4 1-531): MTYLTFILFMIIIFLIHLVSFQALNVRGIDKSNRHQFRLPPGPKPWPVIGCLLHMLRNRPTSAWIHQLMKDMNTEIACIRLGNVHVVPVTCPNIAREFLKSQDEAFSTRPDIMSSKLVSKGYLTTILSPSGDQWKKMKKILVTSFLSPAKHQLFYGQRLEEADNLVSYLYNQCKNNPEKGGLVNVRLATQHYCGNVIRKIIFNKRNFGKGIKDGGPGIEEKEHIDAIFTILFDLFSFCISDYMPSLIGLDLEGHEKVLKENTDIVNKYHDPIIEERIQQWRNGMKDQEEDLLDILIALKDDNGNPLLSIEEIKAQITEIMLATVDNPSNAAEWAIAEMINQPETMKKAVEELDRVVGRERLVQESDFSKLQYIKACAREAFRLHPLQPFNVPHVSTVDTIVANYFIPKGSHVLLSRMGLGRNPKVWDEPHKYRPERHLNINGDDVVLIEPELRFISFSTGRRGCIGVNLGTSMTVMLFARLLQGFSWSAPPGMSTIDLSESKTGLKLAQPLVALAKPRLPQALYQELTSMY
As to the kind of experiment: aldoxime formation by recombinant yeast microsomes, LC-MS/MS. In kind it is biochemical. As to conditions: 1 mM substrate, 1 mM NADPH, 75 mM sodium phosphate pH 7.0, 25 °C.

Substrate in series [1]: N[C@@H](Cc1c[nH]c2ccccc12)C(=O)O
Described as above. In kind it is biochemical, Erythroxylum coca. As to conditions: 1 mM NADPH, 75 mM sodium phosphate pH 7.0, 25 °C. The text has this: aldoxime formation by recombinant yeast microsomes, LC-MS/MS on CYP79D63

Substrate in series [2]: CC[C@H](C)[C@H](N)C(=O)O
As to the kind of experiment: cells, lysate or membranes. As to conditions: 1 mM NADPH, 75 mM sodium phosphate pH 7.0, 25 °C.

Substrate in series [3]: N[C@@H](Cc1ccc(O)cc1)C(=O)O
As to the kind of experiment: cells, lysate or membranes. As to conditions: 1 mM NADPH, 75 mM sodium phosphate pH 7.0, 25 °C.

Substrate in series [4]: N[C@@H](Cc1c[nH]c2ccccc12)C(=O)O
The experiment in a line: aldoxime formation by recombinant yeast microsomes, LC-MS/MS. The series is classed as biochemical, Erythroxylum fischeri. As to conditions: 1 mM NADPH, 75 mM sodium phosphate pH 7.0, 25 °C.

Substrate in series [5]: N[C@@H](Cc1ccccc1)C(=O)O
The series is described as above. In kind it is biochemical, Erythroxylum fischeri. The note with it: 1 mM NADPH, 75 mM sodium phosphate pH 7.0, 25 °C.

Substrate in series [6]: N[C@@H](Cc1c[nH]c2ccccc12)C(=O)O
Described as above. The series is classed as biochemical, Erythroxylum coca. The note with it: 1 mM NADPH, 75 mM sodium phosphate pH 7.0, 25 °C. The source holds these as a separate data set.

Substrate in series [7]: N[C@@H](Cc1ccccc1)C(=O)O
The description is as above. In kind it is biochemical, Erythroxylum coca. The note with it: 1 mM NADPH, 75 mM sodium phosphate pH 7.0, 25 °C.

In the case of `N[C@@H](Cc1ccccc1)C(=O)O` [L-Phe], on CYP79D61, the “aldoxime formation by recombinant yeast microsomes, LC-MS/MS” value was “CYP79D62, CYP79D60, and CYP79D61 accepted all tested amino acids”.

B1: CYP79D63 (Erythroxylum coca) (protein)
chain: MTYLILILIMIISFLIHLVSFQALNVRGSGKSNRHQFQLPPGPKPWPVIGCLPQMLRNRPTFAWIHQLMKDMNTEIACIRLGSIHVIPVTCPNIAREILKSQDEAFSSRPDFMSSTLVSRGYLATTLSPPGDQWKKMRKILVTSCLSPAKHRLFYRKRLEVADNLVSYLYSQCKDNPEKGGLVNVRLATQHYCGNVIRKIVFNKRNFGKGMKDGGPGIEEKEHIDALFTILFYVFSFCISDYMPSLIGLDLEGHEKVLKENTDIVNKYHDPIIQERIRQWRNGMKDQEEDLLDILIALKDNNGNPLLSIEEIKAQITEIVLASVDNPSNAAEWAIAEMINQPKIMKKAVEELDSVVGSERLVQESDFSKLQYVKACAREAFRLHPMQPFNVPHVSTMDTTIANYFIPKGSHVLLSRMRLGRNSKVWDEPHKYRPERHLSNGDDVLLIEPELRFISFSTGRRGCIGVNLGTSMTIMLFARLLQGFNWSAPPGKSAVDLNESKIGLTLAQPLVALAKPRLPQALYQELTSCINHS
notes: complete ORF in pESC-Leu2d, Saccharomyces cerevisiae WAT11 microsomes
Consider B1, for which the Km (commonly the substrate concentration at which the rate is half of its maximum) in series [1] was determined as 480 ± 50 µM.

B2: CYP79D60 (Erythroxylum fischeri) (protein)
chain: MTYLILILIMIITFLIHLVSFQALNVRGSDKSNRQQFQLPPGPKPWPVIGCLLQMLRNRPTSAWIHQLMKDMNTEIACIRLGNVHVIPVTCPNIAREFLKSQDEAFSSRPDFMSNKLVSKGYLTTALSPSGDQWKKMKKILVTSFLSPAKHKLFYGKRLEEADHLVSYLYNQCKNNPEKGGLVNVRLATQHYCGNVIRKIVFNKRNFGKGMEDGGPGIEEKEHIDALFTILFYLFSFCISDYMPSLIGLDLEGHEKVLRENTDIVNKYHDPIIEERIQQWRNGMKDQEEDLLDILIALKDDNGSPLLSIEEIKAQITEIMIAAVDNPSNAAEWAIAEMINQPETMKKAVEELDRAVGRERLVQESDFSKLKYIKACAREAFRLHPMEAFNVPHVSTVDTIVANYFIPKGSHVLLSRMGIGRNPKVWDEPHKYKPERHLKNGDDVVLTEPELRFISFSTGRRGCIGVNLGTSMTVMLFARLLQGFSWSAPPGMSTIDLSESKTGLKLAQPLVALAKPRLPQALYQELTSCINHS
notes: as for B1
With B2, the Km in series [2] was 1280 ± 250 µM; in series [3], 6090 ± 1320 µM; in series [4], 2740 ± 110 µM; in series [5], 580 ± 50 µM.

B3: CYP79D62 (Erythroxylum coca) (protein)
chain: MTYLILILIMIILVSFQALNVRCNDKSNRHQLQLPPGPKPWPVIGCLPQMLRNRPTFAWIHQLMKDMNTEIACIRLGNVHVIPVTCPNIAREFLKSQDEAFSSRPDFMSNKLVSKRYLTTALSPSGDQWKKMKKILVTSFLSPAKHQLFYGKRLEEADNLVSYLYGQCKNNPEKGGLVNVRLATRHYCGNVIRKIVFNKRNFGEGMKDGGPGIEEKEHIDAIFTILSYLFSFCISDYMPSLIGLDLEGHEKVLKENTDIVNKYHDPIIEERIQQWRNGMKDREEDLLDILIALKDDNGNPLLSIEEIKAQITEIILATVDNPSNAAEWAIAEMINQPEMMKKAVEELDRVVGRERLVQESDFVKLQYVKACAREAFRLHPLEPFNIPHVSTVDTTVANYFIPKGSHVLLSRMGLGRNPKVWDEPHKYKPERHLSNGDDVVLIEPELRFISFSTGRRGCIGVNLGTSMTVMLFARLLQGFSWSAPPGKLAINLNESKTGLALAQPLVALAKPRLPQALYQELTSCINHS
notes: as for B1
With B3, the Km was found to be 3270 ± 420 µM in series [2], 4990 ± 460 µM in series [3], 1090 ± 40 µM in series [6] and 670 ± 70 µM in series [7].
